What was measured:
Grb2 SH2 = Grb2 SH2 (UniProt P62993); assay: SH2 binding enrichment of the phosphorylated peptide, bacterial display (enrichment ratio); higher = better substrate or ligand; peptides without Tyr show the background
SHP2-C SH2 = assay: as above
c-Src SH2 = assay: as above
Fes = Fes (UniProt P07332); assay: phosphorylation enrichment, bacterial display (enrichment ratio); higher = better substrate or ligand; peptides without Tyr show the background
Fer (mouse) = assay: as above
Jak2 = Jak2 (UniProt O60674); assay: as above
Chain of Jak2 (O60674 whole entry, looked up): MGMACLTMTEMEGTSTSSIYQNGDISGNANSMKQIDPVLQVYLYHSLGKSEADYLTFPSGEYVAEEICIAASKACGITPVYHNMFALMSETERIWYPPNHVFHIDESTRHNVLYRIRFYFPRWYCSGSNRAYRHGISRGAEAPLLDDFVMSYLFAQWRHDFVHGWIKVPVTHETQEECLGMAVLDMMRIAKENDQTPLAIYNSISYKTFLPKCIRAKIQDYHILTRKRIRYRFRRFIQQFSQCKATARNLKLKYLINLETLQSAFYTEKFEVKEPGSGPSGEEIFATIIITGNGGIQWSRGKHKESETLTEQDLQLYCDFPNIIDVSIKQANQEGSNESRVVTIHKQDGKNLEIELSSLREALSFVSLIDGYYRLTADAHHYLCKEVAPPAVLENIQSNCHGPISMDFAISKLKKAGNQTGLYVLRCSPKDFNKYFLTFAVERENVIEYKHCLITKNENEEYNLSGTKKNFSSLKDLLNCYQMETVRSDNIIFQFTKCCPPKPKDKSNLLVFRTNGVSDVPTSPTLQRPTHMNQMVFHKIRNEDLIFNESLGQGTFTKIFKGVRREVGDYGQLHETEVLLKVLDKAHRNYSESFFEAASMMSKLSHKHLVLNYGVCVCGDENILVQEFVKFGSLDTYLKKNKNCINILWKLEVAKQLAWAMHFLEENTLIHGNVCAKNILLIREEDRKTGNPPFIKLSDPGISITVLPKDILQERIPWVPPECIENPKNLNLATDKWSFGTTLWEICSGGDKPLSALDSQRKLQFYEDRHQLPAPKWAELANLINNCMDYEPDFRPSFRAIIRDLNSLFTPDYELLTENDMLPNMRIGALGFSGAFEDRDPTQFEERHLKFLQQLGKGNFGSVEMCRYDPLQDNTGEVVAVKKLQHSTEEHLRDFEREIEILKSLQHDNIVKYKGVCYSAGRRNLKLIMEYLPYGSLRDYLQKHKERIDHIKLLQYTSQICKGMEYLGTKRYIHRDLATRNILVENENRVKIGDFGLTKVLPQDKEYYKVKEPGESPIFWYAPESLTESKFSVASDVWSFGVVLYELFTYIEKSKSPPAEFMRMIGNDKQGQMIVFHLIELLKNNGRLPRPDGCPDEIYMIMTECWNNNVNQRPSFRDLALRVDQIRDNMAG

MERTK = MERTK (UniProt Q12866); assay: as above
Chain of MERTK (Q12866 whole entry, looked up): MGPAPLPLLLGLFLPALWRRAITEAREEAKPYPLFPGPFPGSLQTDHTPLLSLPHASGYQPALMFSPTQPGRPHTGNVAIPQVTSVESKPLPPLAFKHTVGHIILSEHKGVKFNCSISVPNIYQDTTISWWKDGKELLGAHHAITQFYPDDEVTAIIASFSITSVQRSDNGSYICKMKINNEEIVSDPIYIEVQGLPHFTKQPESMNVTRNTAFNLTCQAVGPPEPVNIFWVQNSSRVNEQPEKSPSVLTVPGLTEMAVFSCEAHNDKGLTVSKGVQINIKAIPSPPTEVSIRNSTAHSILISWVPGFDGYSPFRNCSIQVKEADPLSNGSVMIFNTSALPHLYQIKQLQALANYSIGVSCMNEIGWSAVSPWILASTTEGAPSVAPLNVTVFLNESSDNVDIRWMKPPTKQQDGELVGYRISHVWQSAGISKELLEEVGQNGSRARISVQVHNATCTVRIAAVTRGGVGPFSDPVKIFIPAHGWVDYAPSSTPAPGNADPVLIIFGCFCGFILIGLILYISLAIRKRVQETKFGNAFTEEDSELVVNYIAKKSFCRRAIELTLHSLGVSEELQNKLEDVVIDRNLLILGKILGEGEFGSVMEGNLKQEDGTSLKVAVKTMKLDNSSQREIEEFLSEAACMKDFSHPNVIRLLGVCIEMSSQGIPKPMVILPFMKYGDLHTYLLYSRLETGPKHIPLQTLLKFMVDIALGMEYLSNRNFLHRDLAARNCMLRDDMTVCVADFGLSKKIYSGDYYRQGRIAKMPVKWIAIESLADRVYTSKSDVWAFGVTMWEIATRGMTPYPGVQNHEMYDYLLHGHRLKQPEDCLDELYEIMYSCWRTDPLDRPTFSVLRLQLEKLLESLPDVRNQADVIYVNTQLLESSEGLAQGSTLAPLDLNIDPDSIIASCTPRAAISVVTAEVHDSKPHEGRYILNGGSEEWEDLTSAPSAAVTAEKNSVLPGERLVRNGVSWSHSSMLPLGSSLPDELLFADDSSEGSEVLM

c-Src = assay: as above
Hck = Hck (UniProt P08631); assay: as above
Chain of Hck (P08631 whole entry, looked up): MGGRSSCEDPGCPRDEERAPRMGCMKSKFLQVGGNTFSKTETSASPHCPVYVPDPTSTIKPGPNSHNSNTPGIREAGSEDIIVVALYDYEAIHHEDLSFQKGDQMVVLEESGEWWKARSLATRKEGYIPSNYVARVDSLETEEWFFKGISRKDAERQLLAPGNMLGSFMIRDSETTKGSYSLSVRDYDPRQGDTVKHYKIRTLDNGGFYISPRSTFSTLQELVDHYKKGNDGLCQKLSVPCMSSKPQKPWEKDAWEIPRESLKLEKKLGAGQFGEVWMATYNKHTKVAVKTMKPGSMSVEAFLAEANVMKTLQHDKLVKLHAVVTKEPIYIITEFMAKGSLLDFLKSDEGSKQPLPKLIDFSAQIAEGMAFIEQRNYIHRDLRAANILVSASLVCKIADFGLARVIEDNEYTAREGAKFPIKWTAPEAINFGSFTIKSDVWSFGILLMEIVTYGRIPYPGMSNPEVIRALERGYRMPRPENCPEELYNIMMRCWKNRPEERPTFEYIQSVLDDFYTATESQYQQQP

FGFR3 = FGFR3 (UniProt P22607); assay: as above
c-Abl (mouse) = assay: as above
Fyn = Fyn (UniProt P06241); assay: as above
Chain of Fyn (P06241 whole entry, looked up): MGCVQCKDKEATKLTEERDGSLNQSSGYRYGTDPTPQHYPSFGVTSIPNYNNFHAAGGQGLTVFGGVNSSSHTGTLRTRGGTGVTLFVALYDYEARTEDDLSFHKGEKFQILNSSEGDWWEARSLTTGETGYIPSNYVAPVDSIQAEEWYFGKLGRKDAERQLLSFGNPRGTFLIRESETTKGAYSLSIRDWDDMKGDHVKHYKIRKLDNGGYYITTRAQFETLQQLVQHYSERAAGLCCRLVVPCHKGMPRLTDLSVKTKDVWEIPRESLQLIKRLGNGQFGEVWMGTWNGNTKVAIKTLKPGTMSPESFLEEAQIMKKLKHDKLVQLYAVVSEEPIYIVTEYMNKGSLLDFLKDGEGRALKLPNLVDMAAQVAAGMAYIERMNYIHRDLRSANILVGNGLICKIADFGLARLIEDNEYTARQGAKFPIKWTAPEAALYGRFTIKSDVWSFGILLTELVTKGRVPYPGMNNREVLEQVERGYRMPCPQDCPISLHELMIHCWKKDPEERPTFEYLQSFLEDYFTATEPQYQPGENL

FGFR1 = FGFR1 (UniProt P11362); assay: as above
Chain of FGFR1 (P11362 whole entry, looked up): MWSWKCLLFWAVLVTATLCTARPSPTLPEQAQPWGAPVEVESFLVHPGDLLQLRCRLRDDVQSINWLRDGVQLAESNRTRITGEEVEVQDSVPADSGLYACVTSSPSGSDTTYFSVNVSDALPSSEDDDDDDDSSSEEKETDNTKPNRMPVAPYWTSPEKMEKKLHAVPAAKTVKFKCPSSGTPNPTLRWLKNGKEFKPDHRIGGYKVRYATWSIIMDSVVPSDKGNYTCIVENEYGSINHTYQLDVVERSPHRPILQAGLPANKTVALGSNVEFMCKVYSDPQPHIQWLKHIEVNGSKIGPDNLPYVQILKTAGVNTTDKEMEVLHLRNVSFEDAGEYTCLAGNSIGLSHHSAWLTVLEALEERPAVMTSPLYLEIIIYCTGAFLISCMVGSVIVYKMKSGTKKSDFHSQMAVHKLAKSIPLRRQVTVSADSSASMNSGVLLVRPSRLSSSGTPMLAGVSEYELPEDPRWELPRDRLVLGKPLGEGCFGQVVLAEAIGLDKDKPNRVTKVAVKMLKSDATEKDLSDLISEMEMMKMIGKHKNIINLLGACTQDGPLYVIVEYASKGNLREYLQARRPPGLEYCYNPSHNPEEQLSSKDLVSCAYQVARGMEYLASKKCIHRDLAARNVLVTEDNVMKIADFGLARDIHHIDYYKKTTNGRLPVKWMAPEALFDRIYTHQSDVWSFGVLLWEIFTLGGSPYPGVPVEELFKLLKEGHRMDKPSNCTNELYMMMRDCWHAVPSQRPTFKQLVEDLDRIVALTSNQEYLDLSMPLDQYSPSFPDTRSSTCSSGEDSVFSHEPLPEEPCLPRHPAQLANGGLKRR

EPHB2 = EPHB2 (UniProt P29323); assay: as above
EPHB1 = EPHB1 (UniProt P54762); assay: as above
AncSZ = assay: as above
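For SH2 binding enrichment of the phosphorylated peptide, bacterial display in this document: peptide library displayed on the E. coli surface as eCPX fusions, selected cells deep-sequenced, score is each peptide's frequency after selection divided by its frequency in the input.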
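For phosphorylation enrichment, bacterial display in this document: 11-residue human phosphosite peptides and single-mutation variants displayed on the E. coli surface, counted by deep sequencing, each peptide's frequency after selection divided by its frequency in the unselected input library; frequency after pTyr selection over input frequency; kinase dosed for 20-30% of maximal phosphorylation in three min.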

Chain of Fes (P07332 whole entry, looked up): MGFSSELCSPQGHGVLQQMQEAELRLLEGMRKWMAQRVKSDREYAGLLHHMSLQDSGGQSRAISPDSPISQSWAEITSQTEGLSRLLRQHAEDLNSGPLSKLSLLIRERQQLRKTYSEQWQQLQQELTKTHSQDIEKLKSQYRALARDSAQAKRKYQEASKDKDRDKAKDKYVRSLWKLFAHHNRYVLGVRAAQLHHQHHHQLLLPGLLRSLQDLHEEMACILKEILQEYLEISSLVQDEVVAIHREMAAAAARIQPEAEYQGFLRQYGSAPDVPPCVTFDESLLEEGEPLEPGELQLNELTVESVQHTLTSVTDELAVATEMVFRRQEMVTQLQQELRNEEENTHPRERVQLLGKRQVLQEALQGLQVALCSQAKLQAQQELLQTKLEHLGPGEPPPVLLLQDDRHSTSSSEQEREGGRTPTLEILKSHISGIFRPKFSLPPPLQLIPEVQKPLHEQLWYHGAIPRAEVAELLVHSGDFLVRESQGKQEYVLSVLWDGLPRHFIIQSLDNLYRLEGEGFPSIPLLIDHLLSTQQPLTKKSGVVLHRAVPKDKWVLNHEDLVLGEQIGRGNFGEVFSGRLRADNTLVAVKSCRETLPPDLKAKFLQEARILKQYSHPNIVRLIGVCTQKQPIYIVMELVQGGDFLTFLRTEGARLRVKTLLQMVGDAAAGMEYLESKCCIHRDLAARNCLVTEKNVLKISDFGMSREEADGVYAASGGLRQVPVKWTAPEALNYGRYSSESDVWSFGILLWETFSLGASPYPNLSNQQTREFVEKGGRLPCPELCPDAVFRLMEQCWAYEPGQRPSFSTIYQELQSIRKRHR
Chain of Grb2 SH2 (P62993 whole entry, looked up): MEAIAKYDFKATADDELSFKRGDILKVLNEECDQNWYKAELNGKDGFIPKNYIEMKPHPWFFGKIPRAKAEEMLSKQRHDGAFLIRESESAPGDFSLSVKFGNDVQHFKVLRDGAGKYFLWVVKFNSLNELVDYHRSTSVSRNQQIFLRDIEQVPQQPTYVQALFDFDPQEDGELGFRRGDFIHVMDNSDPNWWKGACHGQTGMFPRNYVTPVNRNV

In the case of IHHIDYYKETT [FGFR1_Y653_K656E], the SH2 binding enrichment (Grb2 SH2) is reported as 0.808, the SH2 binding enrichment (SHP2-C SH2) is reported as 0.635 and the SH2 binding enrichment (c-Src SH2) is reported as 1.08. The phosphorylation enrichment (Fes) was 1.05, the phosphorylation enrichment (Fer (mouse)) was 0.396 and the phosphorylation enrichment (Jak2) was 0.513. The phosphorylation enrichment (MERTK) was 0.491, the phosphorylation enrichment (c-Src) was 0.409 and the phosphorylation enrichment (Hck) was 0.471. It also gave a phosphorylation enrichment (FGFR3) of 0.891, a phosphorylation enrichment (c-Abl (mouse)) of 0.442 and a phosphorylation enrichment (Fyn) of 0.549. For the same sequence, the phosphorylation enrichment (FGFR1) was 0.76, the phosphorylation enrichment (EPHB2) was 0.653 and the phosphorylation enrichment (EPHB1) was 0.594. It also gave a phosphorylation enrichment (AncSZ) of 0.694.
In the case of PVKSEYSSIKL [NPC2_Y119_P120S], the SH2 binding enrichment (Grb2 SH2) is reported as 0.665, the SH2 binding enrichment (SHP2-C SH2) is reported as 4.74 and the SH2 binding enrichment (c-Src SH2) is reported as 1.95. The phosphorylation enrichment (Fes) was 1.06, the phosphorylation enrichment (Fer (mouse)) was 0.702 and the phosphorylation enrichment (Jak2) was 0.737. It also gave a phosphorylation enrichment (MERTK) of 0.5, a phosphorylation enrichment (c-Src) of 0.602 and a phosphorylation enrichment (Hck) of 1.11. The phosphorylation enrichment (FGFR3) was 0.523, the phosphorylation enrichment (c-Abl (mouse)) was 1.03 and the phosphorylation enrichment (Fyn) was 0.553. The phosphorylation enrichment (FGFR1) was 0.518, the phosphorylation enrichment (EPHB2) was 0.533 and the phosphorylation enrichment (EPHB1) was 0.579. For the same sequence, the phosphorylation enrichment (AncSZ) was 0.783.
ESKKHYGYSLY [ANXA3_Y295_F291S] showed an SH2 binding enrichment (Grb2 SH2) of 0.704, an SH2 binding enrichment (SHP2-C SH2) of 0.963 and an SH2 binding enrichment (c-Src SH2) of 0.913. The phosphorylation enrichment (Fes) was 0.593, the phosphorylation enrichment (Fer (mouse)) was 0.453 and the phosphorylation enrichment (Jak2) was 0.551. For the same sequence, the phosphorylation enrichment (MERTK) was 0.486, the phosphorylation enrichment (c-Src) was 0.541 and the phosphorylation enrichment (Hck) was 0.646. The phosphorylation enrichment (FGFR3) was 0.474, the phosphorylation enrichment (c-Abl (mouse)) was 0.435 and the phosphorylation enrichment (Fyn) was 0.454. It also gave a phosphorylation enrichment (FGFR1) of 0.408, a phosphorylation enrichment (EPHB2) of 0.455 and a phosphorylation enrichment (EPHB1) of 0.413. The phosphorylation enrichment (AncSZ) was 0.595.
VKRNRYKDILP [PTPN12_Y64_K61R] showed an SH2 binding enrichment (Grb2 SH2) of 0.541, an SH2 binding enrichment (SHP2-C SH2) of 0.364 and an SH2 binding enrichment (c-Src SH2) of 0.483. For the same sequence, the phosphorylation enrichment (Fes) was 0.561, the phosphorylation enrichment (Fer (mouse)) was 0.49 and the phosphorylation enrichment (Jak2) was 0.528. The phosphorylation enrichment (MERTK) was 0.553, the phosphorylation enrichment (c-Src) was 0.628 and the phosphorylation enrichment (Hck) was 0.579. It also gave a phosphorylation enrichment (FGFR3) of 0.47, a phosphorylation enrichment (c-Abl (mouse)) of 0.514 and a phosphorylation enrichment (Fyn) of 0.689. It also gave a phosphorylation enrichment (FGFR1) of 0.463, a phosphorylation enrichment (EPHB2) of 0.695 and a phosphorylation enrichment (EPHB1) of 0.575. For the same sequence, the phosphorylation enrichment (AncSZ) was 0.65.
SSDPDYRAAVD [GLB1_Y154_L155R] showed an SH2 binding enrichment (Grb2 SH2) of 0.78, an SH2 binding enrichment (SHP2-C SH2) of 0.668 and an SH2 binding enrichment (c-Src SH2) of 0.627. It also gave a phosphorylation enrichment (Fes) of 0.988, a phosphorylation enrichment (Fer (mouse)) of 0.507 and a phosphorylation enrichment (Jak2) of 0.793. It also gave a phosphorylation enrichment (MERTK) of 0.471, a phosphorylation enrichment (c-Src) of 0.409 and a phosphorylation enrichment (Hck) of 0.527. It also gave a phosphorylation enrichment (FGFR3) of 0.635, a phosphorylation enrichment (c-Abl (mouse)) of 0.669 and a phosphorylation enrichment (Fyn) of 0.449. The phosphorylation enrichment (FGFR1) was 0.556, the phosphorylation enrichment (EPHB2) was 0.589 and the phosphorylation enrichment (EPHB1) was 0.508. It also gave a phosphorylation enrichment (AncSZ) of 0.926.
Work on KFDLMYAKCAF [TUBA1A_Y399_R402C] yielded an SH2 binding enrichment (Grb2 SH2) of 0.687, an SH2 binding enrichment (SHP2-C SH2) of 0.473 and an SH2 binding enrichment (c-Src SH2) of 0.557. For the same sequence, the phosphorylation enrichment (Fes) was 1.35, the phosphorylation enrichment (Fer (mouse)) was 0.68 and the phosphorylation enrichment (Jak2) was 1.25. For the same sequence, the phosphorylation enrichment (MERTK) was 0.624, the phosphorylation enrichment (c-Src) was 0.598 and the phosphorylation enrichment (Hck) was 0.677. For the same sequence, the phosphorylation enrichment (FGFR3) was 0.841, the phosphorylation enrichment (c-Abl (mouse)) was 1.06 and the phosphorylation enrichment (Fyn) was 0.567. The phosphorylation enrichment (FGFR1) was 0.491, the phosphorylation enrichment (EPHB2) was 0.723 and the phosphorylation enrichment (EPHB1) was 0.72. It also gave a phosphorylation enrichment (AncSZ) of 1.27.
EQKKFYNAMKN [SCN5A_Y1495_K1500N_YF] gave an SH2 binding enrichment (Grb2 SH2) of 0.751, an SH2 binding enrichment (SHP2-C SH2) of 0.527 and an SH2 binding enrichment (c-Src SH2) of 0.381. For the same sequence, the phosphorylation enrichment (Fes) was 0.43, the phosphorylation enrichment (Fer (mouse)) was 0.451 and the phosphorylation enrichment (Jak2) was 0.41. For the same sequence, the phosphorylation enrichment (MERTK) was 0.458, the phosphorylation enrichment (c-Src) was 0.409 and the phosphorylation enrichment (Hck) was 0.388. It also gave a phosphorylation enrichment (FGFR3) of 0.427, a phosphorylation enrichment (c-Abl (mouse)) of 0.446 and a phosphorylation enrichment (Fyn) of 0.367. It also gave a phosphorylation enrichment (FGFR1) of 0.366, a phosphorylation enrichment (EPHB2) of 0.33 and a phosphorylation enrichment (EPHB1) of 0.297. The phosphorylation enrichment (AncSZ) was 0.458.
In the case of EWLRRHLENGK [HLA-A_Y195_Y195H], the SH2 binding enrichment (Grb2 SH2) is reported as 0.823, the SH2 binding enrichment (SHP2-C SH2) is reported as 0.839 and the SH2 binding enrichment (c-Src SH2) is reported as 0.6. For the same sequence, the phosphorylation enrichment (Fes) was 0.811, the phosphorylation enrichment (Fer (mouse)) was 0.34 and the phosphorylation enrichment (Jak2) was 0.824. It also gave a phosphorylation enrichment (MERTK) of 0.34, a phosphorylation enrichment (c-Src) of 0.331 and a phosphorylation enrichment (Hck) of 0.409. It also gave a phosphorylation enrichment (FGFR3) of 0.552, a phosphorylation enrichment (c-Abl (mouse)) of 0.57 and a phosphorylation enrichment (Fyn) of 0.302. For the same sequence, the phosphorylation enrichment (FGFR1) was 0.429, the phosphorylation enrichment (EPHB2) was 0.481 and the phosphorylation enrichment (EPHB1) was 0.39. It also gave a phosphorylation enrichment (AncSZ) of 0.578.
GDYLSYREFHL [ERBIN_Y1107_S1112L] was tested, and the SH2 binding enrichment (Grb2 SH2) was 0.84, the SH2 binding enrichment (SHP2-C SH2) was 0.689 and the SH2 binding enrichment (c-Src SH2) was 0.491. It also gave a phosphorylation enrichment (Fes) of 0.809, a phosphorylation enrichment (Fer (mouse)) of 0.79 and a phosphorylation enrichment (Jak2) of 1.53. For the same sequence, the phosphorylation enrichment (MERTK) was 0.478, the phosphorylation enrichment (c-Src) was 2.46 and the phosphorylation enrichment (Hck) was 2.45. It also gave a phosphorylation enrichment (FGFR3) of 3.96, a phosphorylation enrichment (c-Abl (mouse)) of 15.7 and a phosphorylation enrichment (Fyn) of 3.1. It also gave a phosphorylation enrichment (FGFR1) of 5.4, a phosphorylation enrichment (EPHB2) of 22.7 and a phosphorylation enrichment (EPHB1) of 16.4. It also gave a phosphorylation enrichment (AncSZ) of 1.8.
